Measured values taken from the supplement of paper PMC7877785.
± gives the uncertainty stated by the source.

Assay: self-splicing fitness, log relative to wild type (ln ratio); higher = more splicing; Tetrahymena group I intron in knt gene, E. coli kanamycin selection, DiMSum; sequences stand for … in CUCUCU…GGAGGGAAAAGUUAUCAGGCAUGCACCUGGUAGCUAGUCUUUAAACCAAUAGAUUGCAUCGGUUUAAAAGGCAAGACCGUCAAAUUGCGGGAAAGGGGUCAACAGCCGUUCAGUACCAAGUCUCAGGGGAAACUUUGAGAUGGCCUUGCAAAGGGUAUGGUAAUAAGCUGACGGACAUGGUCCUAACCACGCAGCCAAGUCCUAAGUCAACAGAUCUUCUGUUGAUAUGGAUGCAGUUCACAGACUAAAUGUCGGUCGGGGAAGAUGUAUUCUUCUCAUAAGAUAUAGUCGGACCUCUCCUUAAUGGGAGCUAGCGGAUGAAGUGAUGCAACACUGGAGCCGCUGGGAACUAAUUUGUAUGCGAAAGUAUAUUGAUUAGUUUUGGAGUACUCGUGGUCG
How it was run: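 Six replicate transformations of E. coli BL21(DE3) with a pET-22b(+) library were grown overnight at 37°C or 30°C. The library randomised all eight P1ex-region intron nucleotides, the intron lying in the knt kanamycin-resistance gene, and plates were LB agar with or without 25 μg/mL kanamycin plus 100 μg/mL carbenicillin, 50 μM IPTG and 0.2% rhamnose. Pooled colonies were amplicon-sequenced on an Illumina HiSeq 2500, and fitness is the DiMSum error-weighted combination of wild-type-normalised replicate fold changes, kanamycin versus none.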

CCCUAGCAAUAUUACGUGCC
self-splicing fitness (ln) (30 °C): -3.52 ± 0.22
self-splicing fitness (ln) (37 °C): -2.2 ± 0.24

CCUUAGCAAUAUUACGUAGA
self-splicing fitness (ln) (30 °C): -4.13 ± 0.34
self-splicing fitness (ln) (37 °C): -0.769 ± 0.17

AACUAGCAAUAUUACGUCAG
self-splicing fitness (ln) (30 °C): -3.51 ± 0.18
self-splicing fitness (ln) (37 °C): -1.57 ± 0.15

CCGAAGCAAUAUUACGCUGC
self-splicing fitness (ln) (30 °C): -2.89 ± 0.34
self-splicing fitness (ln) (37 °C): -2.4 ± 0.45

AAGCAGCAAUAUUACGACAC
self-splicing fitness (ln) (30 °C): -1.25 ± 0.058
self-splicing fitness (ln) (37 °C): -0.831 ± 0.073

AUCCAGCAAUAUUACGAGGC
self-splicing fitness (ln) (30 °C): -1.97 ± 0.16
self-splicing fitness (ln) (37 °C): -1.41 ± 0.23

GCAUAGCAAUAUUACGGUCU
self-splicing fitness (ln) (30 °C): -1.57 ± 0.098
self-splicing fitness (ln) (37 °C): -0.521 ± 0.092

AUUCAGCAAUAUUACGGUAC
self-splicing fitness (ln) (30 °C): -2.27 ± 0.11
self-splicing fitness (ln) (37 °C): -0.675 ± 0.094

UGUGAGCAAUAUUACGGCCA
self-splicing fitness (ln) (30 °C): -0.0854 ± 0.18
self-splicing fitness (ln) (37 °C): 0.465 ± 0.34

CGAUAGCAAUAUUACGCAGU
self-splicing fitness (ln) (30 °C): -2.96 ± 0.19
self-splicing fitness (ln) (37 °C): -2.48 ± 0.19

AUAAAGCAAUAUUACGCCCG
self-splicing fitness (ln) (30 °C): -1.01 ± 0.14
self-splicing fitness (ln) (37 °C): -0.313 ± 0.16

AAAUAGCAAUAUUACGAAUC
self-splicing fitness (ln) (30 °C): -2.64 ± 0.18
self-splicing fitness (ln) (37 °C): -2.29 ± 0.22

AAACAGCAAUAUUACGAUAG
self-splicing fitness (ln) (30 °C): -2.76 ± 0.1
self-splicing fitness (ln) (37 °C): -2.14 ± 0.12

GUUCAGCAAUAUUACGAGCU
self-splicing fitness (ln) (30 °C): -3.34 ± 0.32
self-splicing fitness (ln) (37 °C): -3.72 ± 0.39

AACCAGCAAUAUUACGGAGU
self-splicing fitness (ln) (30 °C): -1.66 ± 0.048
self-splicing fitness (ln) (37 °C): -0.881 ± 0.064

GUCUAGCAAUAUUACGGCGC
self-splicing fitness (ln) (30 °C): -0.167 ± 0.1
self-splicing fitness (ln) (37 °C): 0.985 ± 0.12

CGGCAGCAAUAUUACGGUUC
self-splicing fitness (ln) (30 °C): -2.16 ± 0.093
self-splicing fitness (ln) (37 °C): -0.799 ± 0.098

UCCCAGCAAUAUUACGCUAA
self-splicing fitness (ln) (30 °C): -1.75 ± 0.11
self-splicing fitness (ln) (37 °C): -0.958 ± 0.091

CUGAAGCAAUAUUACGGCUA
self-splicing fitness (ln) (30 °C): -3.03 ± 0.25
self-splicing fitness (ln) (37 °C): -1.22 ± 0.25

CAACAGCAAUAUUACGCUUU
self-splicing fitness (ln) (30 °C): -2.5 ± 0.17
self-splicing fitness (ln) (37 °C): -2.54 ± 0.2

UAACAGCAAUAUUACGUGCG
self-splicing fitness (ln) (30 °C): -0.551 ± 0.072
self-splicing fitness (ln) (37 °C): 0.0501 ± 0.085

ACCAAGCAAUAUUACGCCCC
self-splicing fitness (ln) (30 °C): -1.37 ± 0.35
self-splicing fitness (ln) (37 °C): 0.27 ± 0.24

UGUCAGCAAUAUUACGCCCG
self-splicing fitness (ln) (30 °C): -0.222 ± 0.15
self-splicing fitness (ln) (37 °C): -0.125 ± 0.21

UCUUAGCAAUAUUACGGAUC
self-splicing fitness (ln) (37 °C): -1.69 ± 0.36

CGAUAGCAAUAUUACGGAGC
self-splicing fitness (ln) (30 °C): -3.91 ± 0.4
self-splicing fitness (ln) (37 °C): -1.63 ± 0.3

AAGUAGCAAUAUUACGCCUU
self-splicing fitness (ln) (30 °C): -1.39 ± 0.12
self-splicing fitness (ln) (37 °C): -1.01 ± 0.19

ACGAAGCAAUAUUACGGCCA
self-splicing fitness (ln) (30 °C): -0.778 ± 0.091
self-splicing fitness (ln) (37 °C): 0.402 ± 0.095

ACAUAGCAAUAUUACGAAAC
self-splicing fitness (ln) (30 °C): -3.95 ± 0.26
self-splicing fitness (ln) (37 °C): -2.45 ± 0.33

AUUGAGCAAUAUUACGGCUA
self-splicing fitness (ln) (30 °C): -1.73 ± 0.37
self-splicing fitness (ln) (37 °C): -0.81 ± 0.21

UUUUAGCAAUAUUACGUCAA
self-splicing fitness (ln) (30 °C): -2.59 ± 0.17
self-splicing fitness (ln) (37 °C): -1.34 ± 0.13

ACGCAGCAAUAUUACGUUCC
self-splicing fitness (ln) (30 °C): -1.71 ± 0.11
self-splicing fitness (ln) (37 °C): -2.26 ± 0.19

GGAUAGCAAUAUUACGUGUC
self-splicing fitness (ln) (30 °C): -3.16 ± 0.28

UGCAAGCAAUAUUACGUCUU
self-splicing fitness (ln) (30 °C): -4.52 ± 0.31
self-splicing fitness (ln) (37 °C): -0.686 ± 0.1

UCAAAGCAAUAUUACGCUAC
self-splicing fitness (ln) (30 °C): -2.96 ± 0.46
self-splicing fitness (ln) (37 °C): -2.22 ± 0.37

GCUCAGCAAUAUUACGUGUC
self-splicing fitness (ln) (30 °C): -1.55 ± 0.078
self-splicing fitness (ln) (37 °C): -0.662 ± 0.081

GCGUAGCAAUAUUACGCCUA
self-splicing fitness (ln) (30 °C): -1.76 ± 0.45
self-splicing fitness (ln) (37 °C): -1.07 ± 0.35

AUUAAGCAAUAUUACGUAUC
self-splicing fitness (ln) (30 °C): -3.93 ± 0.25
self-splicing fitness (ln) (37 °C): -2.31 ± 0.24

AAGUAGCAAUAUUACGCUAA
self-splicing fitness (ln) (30 °C): -1.81 ± 0.14
self-splicing fitness (ln) (37 °C): -0.343 ± 0.15

UUCGAGCAAUAUUACGAAGA
self-splicing fitness (ln) (30 °C): -2 ± 0.29
self-splicing fitness (ln) (37 °C): -1.36 ± 0.25

UCACAGCAAUAUUACGAGUA
self-splicing fitness (ln) (30 °C): -2.02 ± 0.1
self-splicing fitness (ln) (37 °C): -1.52 ± 0.085

CGCGAGCAAUAUUACGCGCG
self-splicing fitness (ln) (37 °C): -2.07 ± 0.29

GUUCAGCAAUAUUACGUGUU
self-splicing fitness (ln) (30 °C): -1.84 ± 0.08
self-splicing fitness (ln) (37 °C): 0.0147 ± 0.089

UUAGAGCAAUAUUACGUCAU
self-splicing fitness (ln) (30 °C): -3.46 ± 0.31
self-splicing fitness (ln) (37 °C): -2.25 ± 0.33

AGUAAGCAAUAUUACGAGUC
self-splicing fitness (ln) (30 °C): -2.96 ± 0.23
self-splicing fitness (ln) (37 °C): -1.45 ± 0.17

GAGGAGCAAUAUUACGUAGC
self-splicing fitness (ln) (30 °C): -0.914 ± 0.2
self-splicing fitness (ln) (37 °C): -1.02 ± 0.37

GUGCAGCAAUAUUACGCAGU
self-splicing fitness (ln) (30 °C): -3.58 ± 0.27
self-splicing fitness (ln) (37 °C): -2.4 ± 0.28

GCGUAGCAAUAUUACGAAGG
self-splicing fitness (ln) (37 °C): -2.27 ± 0.5

GUGAAGCAAUAUUACGUCGA
self-splicing fitness (ln) (30 °C): -0.469 ± 0.077
self-splicing fitness (ln) (37 °C): 0.751 ± 0.12

GCGUAGCAAUAUUACGUAUU
self-splicing fitness (ln) (30 °C): -2.67 ± 0.12
self-splicing fitness (ln) (37 °C): -2.11 ± 0.19

CUGCAGCAAUAUUACGUCAG
self-splicing fitness (ln) (30 °C): -3.61 ± 0.28
self-splicing fitness (ln) (37 °C): -2.08 ± 0.21

GUUUAGCAAUAUUACGCACU
self-splicing fitness (ln) (30 °C): -1.41 ± 0.15
self-splicing fitness (ln) (37 °C): -0.128 ± 0.15

GCCUAGCAAUAUUACGUAGC
self-splicing fitness (ln) (30 °C): -0.323 ± 0.11
self-splicing fitness (ln) (37 °C): -0.445 ± 0.11

UUGGAGCAAUAUUACGGUUU
self-splicing fitness (ln) (30 °C): -3.38 ± 0.31
self-splicing fitness (ln) (37 °C): -2.9 ± 0.47

GAGGAGCAAUAUUACGUGGG
self-splicing fitness (ln) (30 °C): -3.08 ± 0.36
self-splicing fitness (ln) (37 °C): -1.91 ± 0.4

ACUGAGCAAUAUUACGCCUG
self-splicing fitness (ln) (30 °C): -2.36 ± 0.19
self-splicing fitness (ln) (37 °C): -1.48 ± 0.19

ACCUAGCAAUAUUACGCUGA
self-splicing fitness (ln) (30 °C): -1.59 ± 0.082
self-splicing fitness (ln) (37 °C): -0.127 ± 0.09

AUCAAGCAAUAUUACGUUCC
self-splicing fitness (ln) (30 °C): -2.85 ± 0.13
self-splicing fitness (ln) (37 °C): -0.598 ± 0.17

AGAGAGCAAUAUUACGCUGA
self-splicing fitness (ln) (30 °C): -2.75 ± 0.18
self-splicing fitness (ln) (37 °C): -2.94 ± 0.28

GUUUAGCAAUAUUACGAAUG
self-splicing fitness (ln) (30 °C): -1.2 ± 0.18
self-splicing fitness (ln) (37 °C): -0.733 ± 0.18

CCUAAGCAAUAUUACGGCGC
self-splicing fitness (ln) (30 °C): -3.12 ± 0.29
self-splicing fitness (ln) (37 °C): -3.22 ± 0.33

CUGCAGCAAUAUUACGUGCU
self-splicing fitness (ln) (30 °C): -4.44 ± 0.23
self-splicing fitness (ln) (37 °C): -2.54 ± 0.19

UGGCAGCAAUAUUACGCAAU
self-splicing fitness (ln) (30 °C): -2.31 ± 0.099
self-splicing fitness (ln) (37 °C): -1 ± 0.12

ACAUAGCAAUAUUACGAACC
self-splicing fitness (ln) (30 °C): -1.16 ± 0.13
self-splicing fitness (ln) (37 °C): -1.13 ± 0.2

UAAAAGCAAUAUUACGGACG
self-splicing fitness (ln) (30 °C): 0.221 ± 0.11
self-splicing fitness (ln) (37 °C): 0.00931 ± 0.13

GCGUAGCAAUAUUACGCGAG
self-splicing fitness (ln) (37 °C): -2.54 ± 0.27

UUGUAGCAAUAUUACGAAUG
self-splicing fitness (ln) (30 °C): -3.32 ± 0.41
self-splicing fitness (ln) (37 °C): -1.93 ± 0.29

GAUGAGCAAUAUUACGAAUG
self-splicing fitness (ln) (30 °C): -2.71 ± 0.21
self-splicing fitness (ln) (37 °C): -2.67 ± 0.34

CGUGAGCAAUAUUACGGUCU
self-splicing fitness (ln) (30 °C): -2.56 ± 0.17
self-splicing fitness (ln) (37 °C): -2.16 ± 0.42

UGCUAGCAAUAUUACGUUUC
self-splicing fitness (ln) (30 °C): -4.01 ± 0.42
self-splicing fitness (ln) (37 °C): -2.06 ± 0.34

AAAAAGCAAUAUUACGAGUU
self-splicing fitness (ln) (30 °C): -1.33 ± 0.065
self-splicing fitness (ln) (37 °C): -0.488 ± 0.07

AAGGAGCAAUAUUACGGGAU
self-splicing fitness (ln) (30 °C): -4.25 ± 0.29
self-splicing fitness (ln) (37 °C): -3.56 ± 0.36

CACAAGCAAUAUUACGUACG
self-splicing fitness (ln) (30 °C): -0.467 ± 0.063
self-splicing fitness (ln) (37 °C): 0.449 ± 0.083

AGCCAGCAAUAUUACGGACA
self-splicing fitness (ln) (30 °C): -0.814 ± 0.1
self-splicing fitness (ln) (37 °C): -0.491 ± 0.13

GGUGAGCAAUAUUACGCUAA
self-splicing fitness (ln) (30 °C): -3.69 ± 0.35
self-splicing fitness (ln) (37 °C): -1.78 ± 0.21

UCCCAGCAAUAUUACGUUUA
self-splicing fitness (ln) (30 °C): -2.21 ± 0.12
self-splicing fitness (ln) (37 °C): -1.79 ± 0.13

GAGUAGCAAUAUUACGUAUA
self-splicing fitness (ln) (30 °C): -2.4 ± 0.29
self-splicing fitness (ln) (37 °C): -1.52 ± 0.22
